The labels stand for the following.
B1: SEQ ID NO 58 (designed binder)
chain: MGSWAEFKQRLAAIKTRLEALGGSEAELAAFLGEIWAFEMELAAYKGKGNPEVEALGREAAAIRMELQAYRHNGGGGSHHHHHH
notes: E. coli, IMAC and HPLC purified; also called His-fusion of bb10
B2: SEQ ID NO 53 (designed binder)
chain: MGSWYEFRHRLWAIDQRLYALGGSEAELAAFEKEIAAFESELQAYKGKGNPEVEGLREAAAFIRAKLQAYRHNGGGGSHHHHHH
notes: E. coli, IMAC and HPLC purified
B3: SEQ ID NO 55 (designed binder)
chain: MGSWFEFNHRLWAINERLYALGGSEAELAAFEKEIAAFESELQAYKGKGNPEVERLRSMAAFIRYKLQAYRHNGGGGSHHHHHH
notes: as for B2
B4: SEQ ID NO 54 (designed binder)
chain: MGSWYEFSMRLWAIDQRLYALGGSEAELAAFEKEIAAFESELQAYKGKGNPEVEALRAKAAYIRWKLQAYRHNGGGGSHHHHHH
notes: as for B2
B5: SEQ ID NO 56 (designed binder)
chain: MGSWYEFGHRLWAIDQRLYALGGSEAELAAFEKEIAAFESELQAYKGKGNPEVEYLRETAAHIRTRLQAYRHNGGGGSHHHHHH
notes: as for B2
B6: SEQ ID NO 52 (designed binder)
chain: MGSWVEFANRLWAIDQRLFALGGSEAELAAFEKEIAAFESELQAYKGKGNPEVEHLRDQAAFIRHKLQAYRHNGGGGSHHHHHH
notes: as for B2
B7: SEQ ID NO 51 (designed binder)
chain: MGSWVEFGHRLWAIDQRLYALGGSEAELAAFEKEIAAFESELQAYKGKGNPEVEKLRQRAAFIRFRLQAYRHNGGGGSHHHHHH
notes: as for B2
B8: SEQ ID NO 57 (designed binder)
chain: MGSWYEFHYRLHAIDQRLYALGGSEAELAAFEKEIAAFESELQAYKGKGNPEVEELRIKAAFIRDRLQAYRHNGGGGSHHHHHH
notes: as for B2
B9: SEQ ID NO 38 (designed binder)
chain: MGSWTEFQSRLDAIHSRLRALGGSEAELAAFEKEIAAFESELQAYKGKGNPEVELLRDDAAFIRHFLQAYRHN
B10: SEQ ID NO 41 (designed binder)
chain: MGSWFEFQDRLTAINERLSALGGSEAELAAFEKEIAAFESELQAYKGKGNPEVETLRSDAAFIRRFLQAYRHN
B11: SEQ ID NO 39 (designed binder)
chain: MGSWQEFDDRLNAIKARLQALGGSEAELAAFEKEIAAFESELQAYKGKGNPEVEDLRDDAAFIRRFLQAYRHN
B12: SEQ ID NO 43 (designed binder)
chain: MGSWYEFNHRLDAISKRLNALGGSEAELAAFEKEIAAFESELQAYKGKGNPEVEELRGDAAFIRHFLQAYRHN
B13: SEQ ID NO 42 (designed binder)
chain: MGSWYEFESRLDAIHERLHALGGSEAELAAFEKEIAAFESELQAYKGKGNPEVENLRGDAAFIRHFLQAYRHN
B14: SEQ ID NO 40 (designed binder)
chain: MGSWYEFQNRLHAIHERLNALGGSEAELAAFEKEIAAFESELQAYKGKGNPEVELLRDDAAFIRHFLQAYRHN
B15: SEQ ID NO 44 (designed binder)
chain: MGSWFEFENRLHAIVHRLGALGGSEAELAAFEKEIAAFESELQAYKGKGNPEVETLRADAAFIRHYLQAYRHN
B16: SEQ ID NO 14 (designed binder)
chain: MGSWYEFRHRLWAIDQRLYALGGSEAELAAFEKEIAAFESELQAYKGKGNPEVEGLREAAAFIRAKLQAYRHN
B17: SEQ ID NO 16 (designed binder)
chain: MGSWFEFNHRLWAINERLYALGGSEAELAAFEKEIAAFESELQAYKGKGNPEVERLRSMAAFIRYKLQAYRHN
B18: SEQ ID NO 18 (designed binder)
chain: MGSWYEFHYRLHAIDQRLYALGGSEAELAAFEKEIAAFESELQAYKGKGNPEVEELRIKAAFIRDRLQAYRHN
B19: SEQ ID NO 13 (designed binder)
chain: MGSWVEFANRLWAIDQRLFALGGSEAELAAFEKEIAAFESELQAYKGKGNPEVEHLRDQAAFIRHKLQAYRHN
B20: SEQ ID NO 15 (designed binder)
chain: MGSWYEFSMRLWAIDQRLYALGGSEAELAAFEKEIAAFESELQAYKGKGNPEVEALRAKAAYIRWKLQAYRHN
B21: SEQ ID NO 17 (designed binder)
chain: MGSWYEFGHRLWAIDQRLYALGGSEAELAAFEKEIAAFESELQAYKGKGNPEVEYLRETAAHIRTRLQAYRHN
B22: SEQ ID NO 12 (designed binder)
chain: MGSWVEFGHRLWAIDQRLYALGGSEAELAAFEKEIAAFESELQAYKGKGNPEVEKLRQRAAFIRFRLQAYRHN
B23: SEQ ID NO 21 (designed binder)
chain: MGSWTEFTYRLSAIEWRLWALGGSEAELAWFEQKIAFFEDFLQYYKGKGNPEVEALKHEAGAILNELMAYRHN
B24: SEQ ID NO 20 (designed binder)
chain: MGSWYEFDLRLHAIYDRLVALGGSEAELAAFEKEIAAFESELQAYKGKGNPEVEILRDNAAYIRQMLQAYRHN
B25: SEQ ID NO 184 (designed binder)
chain: MGSWYEFDDRLNAIHDRLQALGGSEAELAAFEKEIAAFESELQAYKGKGNPEVEDLRDDAAFIRRFLQAYRHN
notes: also called pb06
B26: SEQ ID NO 186 (designed binder)
chain: MGSWTEFEQRLEAIHNRLQALGGSEAELAAFEKEIAAFESELQAYKGKGNPEVEELRNDAAFIRHFLQAYRHN
B27: SEQ ID NO 183 (designed binder)
chain: MGSWKEFDDRLNAIKARLQALGGSEAELAAFEKEIAAFESELQAYKGKGNPEVEDLRDDAAFIRRFLQAYRHN
B28: SEQ ID NO 181 (designed binder)
chain: MGSWNEFHDRLNAIHARLHALGGSEAELAAFEKEIAAFESELQAYKGKGNPEVENLRDDAAFIRRFLQAYRHN
B29: SEQ ID NO 185 (designed binder)
chain: MGSWNEFKNRLDAIHKRLNALGGSEAELAAFEKEIAAFESELQAYKGKGNPEVENLRDDAAFIRHFLQAYRHN

Chain of PD-L1 (target of Example 25) (Q9NZQ7 19-238 limits assumed): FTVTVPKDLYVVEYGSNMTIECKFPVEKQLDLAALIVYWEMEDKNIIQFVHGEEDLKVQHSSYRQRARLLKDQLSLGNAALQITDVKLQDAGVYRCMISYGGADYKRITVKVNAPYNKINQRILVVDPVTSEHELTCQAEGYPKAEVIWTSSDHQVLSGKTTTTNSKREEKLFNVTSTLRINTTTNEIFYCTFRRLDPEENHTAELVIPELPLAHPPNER
T3 sequence (Q07011 24-186 limits assumed): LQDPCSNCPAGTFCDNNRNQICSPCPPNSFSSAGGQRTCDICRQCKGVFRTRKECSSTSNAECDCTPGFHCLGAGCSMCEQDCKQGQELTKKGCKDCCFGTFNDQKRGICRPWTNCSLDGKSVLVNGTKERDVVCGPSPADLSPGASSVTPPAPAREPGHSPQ

The first test addresses T1, CD137-Fc-His6 fusion protein.
T1 construct: Made in HEK293 cells, IMAC purified; also called CD137 target protein
The test is described as follows: biolayer interferometry (ForteBio), CD137-Fc-His6 immobilized via protein A, steady state fit. As for the experimental part: The binding of the eight his-tagged DBDpp ligands (SEQ ID NO:51-58) to the CD137 target protein was assessed using biolayer interferometry (ForteBio, Menlo Park, Calif.) according to established methods. The binding assay was constructed by immobilizing the CD137-Fc-His6 via protein A and then incubating in solutions of each of the DBDpp ligands for 5 minutes to measure the association (binding) phase. The sensors were then placed in buffer to monitor the dissociation phase and the complete sensorgrams (time in seconds on the X-axis and nm on the Y-axis) are shown in FIGS. 12A, 12C, 12E, 12G, 12I, 12K, 12M, and 12O for DBDpps of SEQ ID Nos: 51-58, respectively. The data was fitted by steady state analysis, which is depicted in each of FIGS. […], 12F, 12H, 12J, 12L, 12N, and 12P for the corresponding DBDpp.
On the technique in general: BLI is a label-free optical method that tracks binding on a fibre tip over time.
For B1, binding was characterised by a dissociation constant (Kd) of 1.7 µM.

As for B2, binding was characterised by a dissociation constant (Kd) of 0.14 µM.

Turning to B3, the Kd (as a rule, the concentration at which binding is half-saturated) turned out to be 0.17 µM. The Kd values of the last two molecules are within 1.5-fold of each other.

B4: binding was characterised by a dissociation constant (Kd) of 0.4 µM.

Regarding B5, binding was put at a Kd of 0.77 µM.

Molecule B6 came in with a Kd of 0.46 µM.

Turning to B7, the Kd worked out at 0.64 µM.

The molecule B8 had a Kd of 1 µM. This Kd lies about 1.6-fold higher than the previous one.

For the next test, the target named is T2, PD-L1-Fc (UniProt Q9NZQ7 19-238).
T2 construct: purified recombinant target-Fc protein; also called FC-PD-L1; not shown: Fc
T2 sequence (Q9NZQ7 19-238 limits assumed): as the sequence (Q9NZQ7 19-238 limits assumed) above
The experiment in a line: phage ELISA, target-Fc against non-specific control. As for the experimental part:
(§1) Selections were also performed using F1, F2, F3, C1 & C2 trinucleotide phosphoramidite libraries. In most cases, libraries were pooled prior to use in selection. By combining equal volumes of the individual libraries, Pool F (libraries F1, F2 and F3) and Pool C (libraries C1 and C2) were generated. These libraries were used in selections for DBDpp binders to 4-1BB/CD137 as well as a larger panel of purified recombinant “target”-Fc proteins, including CD47, CTLA4, DR5, KIR, LAG3, OX40, PD1, PD-L1 and TIM3. (Many of these targets are considered immuno-regulatory factors (Pardoll et al., Nat. Rev. Cancer 12:252-264 (2012)). After incubation of the target with the pools of DBDpp phage libraries, bound phage-target complexes were captured and separated from unbound phage with protein A beads (target proteins were Fc fusions). After three rounds of selection, rescued phage clones were screened by ELISA for binding to the selected target.
(§2) For each target, approximately 90 DBDpp phage clones were screened by ELISA for binding to the target protein and as well as a non-specific control (e.g., IgG1-Fc). […] In some instances, for the ELISA screening plate in which the majority of DBDpp clones were positive, the entire plate was sequenced.
(In general: In an ELISA, binding on a coated surface is turned into a signal by an enzyme label.)
As to B9, the “ELISA ratio (target to background)” value stood at 8.68 ratio.

For the molecule B10, the “ELISA ratio (target to background)” value amounted to 6.01 ratio.

Regarding B11, the “ELISA ratio (target to background)” value stood at 7.41 ratio.

Turning to B12, the “ELISA ratio (target to background)” value was found to be 2.98 ratio.

Turning to B13, the “ELISA ratio (target to background)” value is 4.88 ratio.

Take B14: the “ELISA ratio (target to background)” value was determined as 6.34 ratio.

With B15, the “ELISA ratio (target to background)” value was 2.76 ratio.

A further test concerns the target T3, recombinant, biotinylated, Human 4-1BB/TNFRSF9/CD137-Fc (human, UniProt Q07011 24-186, biotinylated (F2NNK selection)).
T3 construct: also called 4-1BB/CD137; not shown: Fc
Described as above. The method, then:
as §1, §2
As for B16, the “ELISA ratio (target to background)” value came to 13 ratio.

As for B17, the “ELISA ratio (target to background)” value was found to be 11.9 ratio.

Take B18: the “ELISA ratio (target to background)” value was 7.26 ratio.

Take B19: the “ELISA ratio (target to background)” value is 16.1 ratio.

Take B20: the “ELISA ratio (target to background)” value stood at 12 ratio.

Consider B21, for which the “ELISA ratio (target to background)” value stood at 7.71 ratio.

B22: the “ELISA ratio (target to background)” value turned out to be 20.6 ratio.

In a further test the target is T4, CD47-Fc (UniProt Q08722 19-139).
T4 construct: purified recombinant target-Fc protein; not shown: Fc
T4 sequence (Q08722 19-139 limits assumed): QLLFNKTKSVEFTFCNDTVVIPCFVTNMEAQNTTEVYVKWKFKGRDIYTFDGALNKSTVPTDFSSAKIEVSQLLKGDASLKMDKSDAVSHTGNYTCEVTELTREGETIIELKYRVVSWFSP
The test is described as above. As for the experimental part: as §1, §2
On to B23, for which the “ELISA ratio (target to background)” value was 12.5 ratio.

In the case of B24, the “ELISA ratio (target to background)” value turned out to be 14.1 ratio.

A further test addresses PD-L1 (target of Example 25) (UniProt Q9NZQ7 19-238, limits assumed). The experiment in a line: library selection; assay not described.
On to B25, for which the binding result is on record as “binds”.

As to B26, the binding result is reported as “binds”.

With B27, the binding result is on record as “binds”.

As for B28, the binding result was “binds”.

Regarding B29, the binding result was “binds”.

The record behind these values is patent US20180251563A1 (SUBDOMAIN, published 2018).
